The conditions of the series: Bacillus subtilis (strain 168), pH 7, Urea, CD, Potassium phosphate 10 mM, reversible: yes, whole UniProt chain shown.

B1: Phosphocarrier protein HPr wild type, P08877 (protein)
chain: MAQKTFKVTADSGIHARPATVLVQTASKYDADVNLEYNGKTVNLKSIMGVMSLGIAKGAEITISASGADENDALNALEETMKSEGLGE
In the case of B1, the denaturant m value is, setting by setting: (10 °C) 1.04 kcal/mol/M; (15 °C) 1.06 kcal/mol/M; (25 °C) 1.08 kcal/mol/M; (35 °C) 1.05 kcal/mol/M; (40 °C) 1.04 kcal/mol/M. Besides, the “denaturant midpoint (higher = more stable)” value (shortened to “denaturant midpoint”) (10 °C) was determined as 3.32 M; the “denaturant midpoint” value (15 °C) came to 3.52 M; the “denaturant midpoint” value (25 °C) was 3.9 M; the “denaturant midpoint” value (35 °C) was determined as 3.77 M; the “denaturant midpoint” value (40 °C) amounted to 3.64 M. Besides, the unfolding free energy by setting is: (10 °C) 3.45 kcal/mol; (15 °C) 3.73 kcal/mol; (25 °C) 4.21 kcal/mol; (35 °C) 3.96 kcal/mol; (40 °C) 3.79 kcal/mol.

Source of the values: FireProtDB (doi:10.1002/pro.5560040106).
